According to patent US12679870 (US Dept. of Health and Human Services, dated 2026):

Molecular target: T1, HMPV F v3BΔ12 (V84C/A249C, A140C/A147C, substitution of HMPV F positions 89-112 to GSGGSG) (human metapneumovirus, B2 strain …)
T1 construct: That entry starts at K20, has no tags, and differs from the v3-B backbone at positions 185 and 323; also called HMPV F v3B with the L0.1 F1/F2 linker
T1 chain: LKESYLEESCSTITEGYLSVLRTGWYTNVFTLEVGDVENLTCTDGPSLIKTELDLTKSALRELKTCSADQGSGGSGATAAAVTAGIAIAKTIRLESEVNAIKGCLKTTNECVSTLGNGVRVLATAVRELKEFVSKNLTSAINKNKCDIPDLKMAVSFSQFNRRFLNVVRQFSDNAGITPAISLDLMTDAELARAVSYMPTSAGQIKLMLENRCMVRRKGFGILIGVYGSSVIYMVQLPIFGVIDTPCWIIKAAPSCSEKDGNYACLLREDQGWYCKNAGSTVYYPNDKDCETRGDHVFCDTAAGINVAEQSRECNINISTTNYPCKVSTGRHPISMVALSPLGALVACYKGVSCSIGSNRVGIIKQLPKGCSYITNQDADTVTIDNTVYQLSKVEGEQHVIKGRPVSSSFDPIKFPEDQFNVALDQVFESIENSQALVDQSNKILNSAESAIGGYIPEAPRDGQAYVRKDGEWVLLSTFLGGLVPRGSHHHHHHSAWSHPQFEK
Experiment: antigenic assessment of F1/F2 linker variants, FIG. 13

B1: MPE8 antibody (Fab, V domains shown)
VH: EVQLVESGGGLVKPGGSLRLSCAASGFTFSSYSMNWVRQAPGKGLEWVSSISASSSYSDYADSAKGRFTISRDNAKTSLFLQMNSLRAEDTAIYFCARARATGYSSITPYFDIWGQGTLVTVSS
VL: QSVVTQPPSVSGAPGQRVTISCTGSSSNIGAGYDVHWYQQLPGTAPKLLIYDNNNRPSGVPDRFSASKSGTSASLAITGLQAEDEADYYCQSYDRSLSGVFGTGTKVTVL
notes: The text calls it an antibody; also called prefusion specific antibody MPE8
fold increase in binding compared to v1B: > 10 fold
